# Assay results as given in US20030078191A1.
# Legend:
# Experiment in all cases: cell-based or functional assay
# [1] = target: Gal4 activation domain alone (pGAD424 vector, no fusion) (UniProt P04386)
# [2] = target: Gal4ad-ZipA(185-302) fusion (pGAD424 fusion) (Escherichia coli)
# [3] = target: Gal4ad-ZipA(185-328) fusion (pGAD424 fusion) (Escherichia coli) (UniProt P77173)
# [4] = target: Gal4ad-ZipA(35-185) fusion (pGAD424 fusion) (Escherichia coli)
# [5] = target: Gal4ad-ZipA(35-284) fusion (pGAD424 fusion) (Escherichia coli)
# Chain of Gal4ad-ZipA(35-284) fusion (pGAD424 fusion) (Escherichia coli) (P04386 768-881): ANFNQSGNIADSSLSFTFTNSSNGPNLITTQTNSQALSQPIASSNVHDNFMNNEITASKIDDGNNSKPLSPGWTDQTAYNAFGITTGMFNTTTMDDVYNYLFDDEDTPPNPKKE
# [6] = target: Gal4ad-ZipA(62-328) fusion (pGAD424 fusion) (Escherichia coli)
# Chain of Gal4ad-ZipA(62-328) fusion (pGAD424 fusion) (Escherichia coli) (P04386 768-881): as above
# Chain of Gal4ad-ZipA(35-185) fusion (pGAD424 fusion) (Escherichia coli) (P04386 768-881): as above
# Chain of Gal4ad-ZipA(185-302) fusion (pGAD424 fusion) (Escherichia coli) (P04386 768-881): as above
# Chain of Gal4 activation domain alone (pGAD424 vector, no fusion) (P04386 768-881 limits assumed): as the sequence (P04386 768-881) above
substance,measurement,setting,value
"Gal4 DNA-binding domain alone (pAS2-1 vector, no fusion) (from UniProt P04386 1-147)","beta-galactosidase (lacZ reporter) activity, MUG fluorescence, yeast two-hybrid",[1],621 units
same,"beta-galactosidase (lacZ reporter) activity, MUG fluorescence, yeast two-hybrid",[2],1120 units
same,"beta-galactosidase (lacZ reporter) activity, MUG fluorescence, yeast two-hybrid",[3],877 units
same,"beta-galactosidase (lacZ reporter) activity, MUG fluorescence, yeast two-hybrid",[4],930 units
same,"beta-galactosidase (lacZ reporter) activity, MUG fluorescence, yeast two-hybrid",[5],832 units
same,"beta-galactosidase (lacZ reporter) activity, MUG fluorescence, yeast two-hybrid",[6],743 units
